Reference: the supplement of paper PMC12042874
± gives the uncertainty stated by the source.

Assay: amyloid nucleation score (Sup35N fusion, yeast selection) (log enrichment); library NNK1; higher = more nucleation; inactive = no reads after selection
How it was run: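 The nucleation score is the log enrichment of output over input reads, calculated with DiMSum and centred on the mode score of non-aggregating sequences. Sequences with under 100 input reads were excluded. Reads came from Illumina sequencing of plasmid inserts from psi-negative yeast expressing Sup35N fused to peptides of 20 random codons, induced 24 hours with 100 μM copper sulfate and grown 7 days at 30°C without adenine and uracil.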

| Substance | amyloid nucleation score |
| --- | --- |
| AIMLGVGFKDGSIVYKLG | -0.354 ± 0.25 |
| CKYVRTQVWSHRLPADNCLT | -0.997 ± 0.98 |
| NSYQSSFSEFAASICFDTAE | -2.5 ± 2.4 |
| GGWFIINRHHLCYSRNLPPE | 0.271 ± 0.69 |
| AFKWTSCYIFPLNWRKLFN | -0.336 ± 0.34 |
| LFCTTSVDNKGPVRLPLVCV | -0.282 ± 1.7 |
| MRSGTVYMVYLVHLKSFKWL | -0.265 ± 0.68 |
| NMNNGDMSSVVVVIRVFCLI | 5.38 ± 0.093 |
| ALCVWQRLSRLLLDTPWHVR | 0.806 ± 0.69 |
| LEQFMTRYRSDIVYCCDSGS | inactive |
| KGTCCPPLPVILDIMEDSSR | -0.227 ± 0.38 |
| SESTYYDIQLPVHMLVDMSE | 0.257 ± 0.24 |
| LGLPSVFRRHFAFMVRMLWY | 0.021 ± 0.75 |
| GLNYLNFTREYYHLTWVVVP | 4.47 ± 0.091 |
| TEQYCS | 0.404 ± 1 |
| WFSINIGKMGARVLSVGQDG | inactive |
| LFCIERWMSNCFG | 0.112 ± 0.75 |
| HHIDPHDSFIS | 0.711 ± 0.93 |
| LRITYMSLVEYG | 1.35 ± 0.69 |
| EVYCIDVGDLSVSGKFDRSL | 1.54 ± 0.4 |
| VRLGMRQMCYQKNRTCQVYF | -0.173 ± 0.62 |
| VALID | -0.215 ± 1.7 |

| Substance | amyloid nucleation score |
| --- | --- |
| WGIFSMYHWRYAVRDRSMHS | inactive |
| VRNWCVGSTVARRYHWMTCP | 0.413 ± 0.58 |
| SYPSGVLDSNNPVLARGLAQ | -0.227 ± 0.41 |
| MMPYQSWDESSSCEDTLKVT | 0.453 ± 0.35 |
| CSEISCPLTKHRCGTLVRVL | -0.761 ± 1.2 |
| DDVYSRYVNEGLGWCFIVYL | inactive |
| SNRNAGRKTMGHLWHQE | 0.2 ± 0.42 |
| ILIDYRGSEPG | 0.224 ± 1.4 |
| KNFAVRWNPVTSDWFVTLSV | -0.429 ± 0.4 |
| SSKEWLNADAVPGNGVEAIV | -0.338 ± 0.53 |
| VFCVRYLRANISCEGHDGWY | 2.28 ± 0.14 |
| VSNFIGVFVAVSWRYDDLCF | 0.324 ± 1.2 |
| ITYKLFVISCNEKRNLICHN | -0.477 ± 0.32 |
| KLFESYVLSRGMVPETVKAV | 0.226 ± 0.78 |
| YVRDGVPSWMQCYLRGSFGG | 0.208 ± 0.72 |
| TGYFNTRVWLDRLDYVLETN | -0.44 ± 0.29 |
| IGYCKWGSDYGCESAT | 1.07 ± 0.93 |
| FYSFTGGAVGLGLC | 1.11 ± 0.49 |
| VRFSVLKVTVLTKARNEVST | 1.7 ± 0.24 |
| VCIFCFRGGMVKRPTLDMVY | 0.564 ± 0.19 |
| FRQFCCV | inactive |
| SDSEGYLVEGWY | 0.882 ± 0.87 |

| Substance | amyloid nucleation score |
| --- | --- |
| YIRGNFYSYQWGNCFMGNFC | 7.792 ± 0.05 |
| YCGGRKG | 0.144 ± 0.34 |
| TLHYRWECVLCPACRYGLSD | 1.14 ± 0.68 |
| RGIKCPVSCKIASSRREWWV | 0.789 ± 0.37 |
| NYLHFSRRLALWRC | inactive |
| LCNKVWFAECQIHSRQG | -0.144 ± 0.83 |
| ARWLIEAVWSMYRFHYIGKR | -0.722 ± 0.52 |
| VFVSWHKVCTNQRSLRQVHL | 1.56 ± 0.48 |
| YLFFNLYCNYVLTAMLRACS | inactive |
| SNLDLHRSVLSRLGKYLDFP | 5.35 ± 0.081 |
| NCFIKDAMVMSSRMYSGNMI | inactive |
| NCKFEKSLKPPHGPYNGNQY | 0.292 ± 0.42 |
| SKIGDEM | -1.29 ± 1.2 |
| EMHFR | 0.024 ± 0.65 |
| MRFKRRSGFGELGMFAFTPL | -0.628 ± 0.5 |
| RVPAFRY | inactive |
| IGVCILTDRLHD | inactive |
| LLHHYGGYELVSDWTIAKF | 0.364 ± 0.31 |
| TPCNVLGNSGPVWSWNP | 0.166 ± 0.81 |
| WVPGITVKMRYGPESIVDWR | 0.565 ± 1.1 |
| LVRKKVCTI | 0.543 ± 0.36 |
| GIRKKVPIVVCNIFQFECKR | 2.51 ± 0.1 |

| Substance | amyloid nucleation score |
| --- | --- |
| RDLAPVLRYVPNESKAGVGV | -0.626 ± 0.53 |
| CIGTHRIRFNSLLYRDQPII | -0.15 ± 0.86 |
| EWGANYVGVDCSLVVRRQDV | 0.497 ± 0.93 |
| VSCCNSQTSQLMDFGNKVSP | 0.349 ± 0.25 |
| CKVSSSFS | 0.258 ± 0.34 |
| ISNYNFNRWHAVSNLGRCIS | -0.033 ± 0.73 |
| HWLRYGDRIHMDNYNTSFFV | 1.42 ± 0.12 |
| TRFLLLSLRDGSEQV | 0.577 ± 0.73 |
| VEVYFSFLNLIFSGMSVLVE | 0.129 ± 0.28 |
| HTSCRTVQHLKVWFPVK | 1.25 ± 0.74 |
| VVCNCGHGIKNIC | -1.08 ± 1.6 |
| HLLWETSMQRLMSHIFTSSR | 0.022 ± 0.43 |
| CCWSYR | 2.51 ± 0.13 |
| PFLFVEIYDNGGSW | 1.36 ± 0.37 |
| MWVNLVWTAFLYKSILCRVF | 0.38 ± 1.2 |
| VLLFNHYFLRAAVIIAWVGW | -0.618 ± 1.6 |
| VLNNLDLCSIRIVSKVSLFM | 6.88 ± 0.085 |
| VISRSVDYTPM | -0.599 ± 0.46 |
| FCEWYLTDDFFYSLCFFFNE | 0.031 ± 0.55 |
| TMVGTMVSMF | -0.539 ± 0.45 |
